The labels stand for the following.
B1: Recombinant BosR (BB0647) (natural protein)
chain: MNDNIIDVHSALEKVGITNDPVLLKNLTSELGMKASHSRNRIILYIASNPKEYFTAKEVYNKLIKEIPSLSKATVYNTLNILKERNILKDIKTTDQKETKFYLSLASTIAHFKCNKCNQVHPIQLDDIKDILKDKLGENWETKSIEIIYSGHCNNCYKKDTHNNNNVPDENKEITL
notes: BosR (BB0647), Fur/PerR homologue of Borrelia burgdorferi; bosR amplified with primers ZM69F and ZM69R and cloned into pET SUMO (pOY73); apparent mass ~18.7 kDa, as for native BosR; The protein contained 1.4 mol of zinc per mol of protein; also called rBosR; purified BosR; source: E. coli BL21-DE3, purified (Ni-NTA spin column, SUMO protease cleavage, Superdex 200); not shown: His6, N-terminal, …
B2: ZM157 (-24/-12 mutant) (dsDNA)
DNA 1: TTTAGTTTAAAACCATTTTTAAATTAAATTTTCACAGTTTTTGAATTCCAACAGGCAAAA
DNA 2: TTTTGCCTGTTGGAATTCAAAAACTGTGAAAATTTAATTTAAAAATGGTTTTAAACTAAA
B3: ZM132 (BS1) (dsDNA)
DNA 1: GGCCTTGCCGATTTAATTTACAATCAATTACAAAAAAGTAAATAATTCAAAAAATACTCC
DNA 2: GGAGTATTTTTTGAATTATTTACTTTTTTGTAATTGATTGTAAATTAAATCGGCAAGGCC
B4: ZM127 (BS2) (dsDNA)
DNA 1: TTTAGTTTAAAACCATTTTTAAATTAAATTGGCACAGTTTTTGCATGAAAATTAAGTAGT
DNA 2: ACTACTTAATTTTCATGCAAAAACTGTGCCAATTTAATTTAAAAATGGTTTTAAACTAAA
B5: ZM213 (DR1 mutant) (dsDNA)
DNA 1: ATTTTATATCCTAGGCCGTTTAAAACCATTTTTAAATTAAATTGGCACAGTTTTTGCATG
DNA 2: CATGCAAAAACTGTGCCAATTTAATTTAAAAATGGTTTTAAACGGCCTAGGATATAAAAT
B6: ZM223 (DR1 and DR2 mutant) (dsDNA)
DNA 1: ATTTTATATCCTAGGCCGTTTAAAACCATTTTTAGGCCAAATTGGCACAGTTTTTGCATG
DNA 2: CATGCAAAAACTGTGCCAATTTGGCCTAAAAATGGTTTTAAACGGCCTAGGATATAAAAT
B7: ZM126 (dsDNA)
DNA 1: TTGCATGGAAATTAAGTAGTAAAAACTTAATCACAATATTCAAGAAAGGGGAGAAAATAT
DNA 2: ATATTTTCTCCCCTTTCTTGAATATTGTGATTAAGTTTTTACTACTTAATTTCCATGCAA
B8: ZM160 (5' of BS3) (dsDNA)
DNA 1: TCACAATATTCAAGAAAGGGGAGAAAATATAATAACTATGAACATATTTAGTAATGAGGA
DNA 2: TCCTCATTACTAAATATGTTCATAGTTATTATATTTTCTCCCCTTTCTTGAATATTGTGA
B9: ZM147 (dsDNA)
DNA 1: AAAAAGCTGAGATCTGTCGACATCCATGGTGGCACAGTTTTTGCATGAAAATTAAGTAGT
DNA 2: ACTACTTAATTTTCATGCAAAAACTGTGCCACCATGGATGTCGACAGATCTCAGCTTTTT
B10: ZM216 (ZM215 DR mutant) (dsDNA)
DNA 1: TGGTTTAGATGGCCTTTTTTTCTCAATTCAGCAATTTCTGAATATAGAATTTTCATATCT
DNA 2: AGATATGAAAATTCTATATTCAGAAATTGCTGAATTGAGAAAAAAAGGCCATCTAAACCA
B11: ZM219 (bosR upstream) (dsDNA)
DNA 1: AAAAAAATATGAAAATAAATAAATAATAAGTAGTAAAATATTAATAACTGGGTATAAAAT
DNA 2: ATTTTATACCCAGTTATTAATATTTTACTACTTATTATTTATTTATTTTCATATTTTTTT
B12: ZM220 (ZM219 DR mutant) (dsDNA)
DNA 1: AAAAAAATATGAAAATGGCCAAATAATAAGTAGTAAAATATTAATAACTGGGTATAAAAT
DNA 2: ATTTTATACCCAGTTATTAATATTTTACTACTTATTATTTGGCCATTTTCATATTTTTTT
B13: ZM155 (BS1 5' DR) (dsDNA)
DNA 1: CTCAAAGCTTTGGCCTTGCCGATTTAATTTACAATCAATTACAAAGCTGAGATCTGTCGA
DNA 2: TCGACAGATCTCAGCTTTGTAATTGATTGTAAATTAAATCGGCAAGGCCAAAGCTTTGAG
B14: ZM210 (ZM155 DR mutant) (dsDNA)
DNA 1: CTCAAAGCTTTGGCCTTGCCGATTTGGCCTACAATCAATTACAAAGCTGAGATCTGTCGA
DNA 2: TCGACAGATCTCAGCTTTGTAATTGATTGTAGGCCAAATCGGCAAGGCCAAAGCTTTGAG
B15: ZM218 (ZM217 DR mutant) (dsDNA)
DNA 1: AGTGTAAAAAGGCCAATCAATTTTTTCATTAAATATCCTTTTTATTTATTATGGTATTAA
DNA 2: TTAATACCATAATAAATAAAAAGGATATTTAATGAAAAAATTGATTGGCCTTTTTACACT
B16: ZM156 (BS1 3' DR) (dsDNA)
DNA 1: GCTGAGATCTGTCGAATCAATTACAAAAAAGTAAATAATTCAAAAAATACTCCCCCTAAA
DNA 2: TTTAGGGGGAGTATTTTTTGAATTATTTACTTTTTTGTAATTGATTCGACAGATCTCAGC
B17: ZM211 (ZM156 DR mutant) (dsDNA)
DNA 1: GCTGAGATCTGTCGAATCAATTACAAAAAAGTAGGCCATTCAAAAAATACTCCCCCTAAA
DNA 2: TTTAGGGGGAGTATTTTTTGAATGGCCTACTTTTTTGTAATTGATTCGACAGATCTCAGC
B18: ZM166 (-24/-12 and DR mutant) (dsDNA)
DNA 1: TTTAGTTTAAAACCATTTTTAGGCCAAATTTTCACAGTTTTTGAATTCCAACAGGCAAAA
DNA 2: TTTTGCCTGTTGGAATTCAAAAACTGTGAAAATTTGGCCTAAAAATGGTTTTAAACTAAA
B19: ZM149 (dsDNA)
DNA 1: TTTAGTTTAAAACCATTTTTAAATTAAATTGGCACAGTTTTTGCATTTTAACAGGCAAAA
DNA 2: TTTTGCCTGTTAAAATGCAAAAACTGTGCCAATTTAATTTAAAAATGGTTTTAAACTAAA

The first data set concerns the molecule itself. As to the kind of experiment: SEC; purified BosR on a Superdex 200 column, calibrated with aldolase 158 kDa, ovalbumin 43 kDa and ribonuclease A 13.7 kDa; buffer A: 20 mM Tris, 20 mM NaCl, 100 mM L-arginine, pH 7.5.
Settings: not given
A word on the stoichiometry N: it is the number of molecules, sites or subunits per partner or assembly. In the case of B1, the “stoichiometry N” value was 2.

In another data set the target is T1, BosR (rBosR) (UniProt O51592 1-176). As to the kind of experiment: EMSA; binding not altered; 20 mM Hepes pH 7.5, 50 mM KCl, 1 mM MgCl2, 1 mM DTT, 5% glycerol, 100 ug/ml BSA, 50 ug/ml poly[d(A-T)], 30 fmol probe in 20 ul, 37 C 30 min. The settings on record: protein: recombinant; tags: none (His6-SUMO tag removed by SUMO protease); chain copies: 2; label: digoxigenin 3' end; blunt. Background: A gel shift assay detects complexes by their altered migration in electrophoresis.
Consider B2, for which the binding result was “binds”.

For another data set, the target named is T1, BosR (rBosR). As to the kind of experiment: EMSA; 20 mM Hepes pH 7.5, 50 mM KCl, 1 mM MgCl2, 1 mM DTT, 5% glycerol, 100 ug/ml BSA, 50 ug/ml poly[d(A-T)], 30 fmol probe in 20 ul, 37 C 30 min. The settings on record: protein: recombinant; tags: none (His6-SUMO tag removed by SUMO protease); chain copies: 2; label: digoxigenin 3' end (terminal transferase); blunt.
One may read the Kd as the concentration at which binding is half-saturated. With B3, the Kd worked out at 210 nM.
With B4, the Kd turned out to be 36.6 nM.

Staying with this data set, now noted: protein: recombinant; tags: none (His6-SUMO tag removed by SUMO protease); chain copies: 2; label: digoxigenin 3' end; blunt.
On to B5, for which the binding result is “binds”.
As to B6, the binding result is “no binding”.
Regarding B7, the binding result is reported as “no binding”.
The same measure, in the same setting: with B8 the entry was “no binding”.
On to B9, for which the binding result was “no binding”.
As to B10, the binding result is listed as “no binding”.
With B11, the binding result was “binds”.
On the same count and under the same terms, the same measure for B12: “no binding”; for B13: “binds”; for B14: “no binding”.
Same read-out and setting: with B15 the entry was “no binding”; with B16, “binds”; with B17, “no binding”.
In the case of B18, the binding result is “no binding”.
For the molecule B19, the binding result was “binds”.

These data come from paper PMC3037356, “BosR (BB0647) Controls the RpoN-RpoS Regulatory Pathway and Virulence Expression in Borrelia burgdorferi by a Novel DNA-Binding Mechanism” (PLoS Pathogens, 2011).
